Reference: US20170362293A1 (GENEXINE, published 2017)

Target: GLP-2R
Assay: cell-based or functional assay

B1: GLP-2-hyFc9 fusion polypeptide (Fc fusion)
chain: HGDGSFSDEMNTILDNLAARDFINWLIQTKITDAKATTAPATTRNTGRGGEEKKKEKEKEEQEERETKTPECPSHTQPLGVFLFPPKPKDTLMISRTPEVTCVVVDVSQEDPEVQFNWYVDGVEVHNAKTKPREEQFNSTYRVVSVLTVLHQDWLNGKEYKCKVSNKGLPSSIEKTISKAKGQPREPQVYTLPPSQEEMTKNQVSLTCLVKGFYPSDIAVEWESNGQPENNYKTTPPVLDSDGSFFLYSRLTVDKSRWQEGNVFSCSVMHEALHNHYTQKSLSLSLGK
  membrane depolarization induced by increased intracellular cAMP in GLP-2R-expressing 293 cells; activity relative to GLP-2-2G peptide set at 100%: 98%
